From PMC4167179 (Results in Pharma Sciences, 2012)
No end group written: not given here. mPEG 20 kDa = linear 20 kDa mPEG attached to the Gln side chain; mPEG 5 kDa = linear 5 kDa mPEG attached to the Gln side chain

Key:
rat β-cell line RIN-m5F = test: In vitro insulin secretion, static incubation of RIN-m5F cells; assay type: cell-based; settings: for EC50: read-out: In vitro insulin secretion in rat β-cell line RIN-m5F, EC50, 2 mM glucose, 30 min incubation, rat insulin ELISA, mean ± SEM of three experiments
[1] = Pharmacokinetics after subcutaneous injection in rats; assay type: in vivo, Sprague-Dawley rats; settings: 1 mg/kg s.c.; for Cmax / tmax: plasma ELISA; for tmax: non-compartmental

| Substance | EC50 (rat β-cell line RIN-m5F) [nM] | tmax ([1]; four animals) [h] | other results |
| --- | --- | --- | --- |
| GLP-1-(7-36)-amide-Q^23-PEG 5 kDa: GLP-1(7-36)-amide monopegylated at glutamine 23 with linear 5 kDa mPEG-NH2 | – | 3 | t1/2 ([1]; elimination phase of log transformed curve, four animals): 1.7 h; Cmax ([1]; four animals): 160.4 ng/mL |
| GLP-1-(7-36)-amide-Q^23-PEG 50 kDa: GLP-1(7-36)-amide monopegylated at glutamine 23 with branched 50 kDa mPEG-NH2 | 1870 ± 1 | – | – |

Now from value to substance, other results behind:

| EC50 (rat β-cell line RIN-m5F) [nM] | Substance | tmax ([1]; four animals) [h] | other results |
| --- | --- | --- | --- |
| 35 ± 3 | GLP-1-(7-36)-(Q23N–A30Q)-amide-Q^30-PEG 20 kDa (HAEGTFTSDVSSYLEGNAAKEFIQ(mPEG 20 kDa)WLVKGR-NH2; UniProt P01275 98-127, looked up, variant Q23N A30Q) | – | In vitro insulin secretion, Relative potency (rat β-cell line RIN-m5F; 1/(EC50 analog/EC50 GLP-1(7-36)-amide)): 0.017 |
| 106.3 ± 0.5 | GLP-1-(7-36)-(T11Q–Q23N)-amide-Q^11-PEG 5 kDa (HAEGQ(mPEG 5 kDa)FTSDVSSYLEGNAAKEFIAWLVKGR-NH2; UniProt P01275 98-127, looked up, variant T11Q Q23N) | – | – |
| 34.4 ± 0.8 | GLP-1-(7-36)-amide-Q^23-PEG 20 kDa: GLP-1(7-36)-amide monopegylated at glutamine 23 with linear 20 kDa mPEG-NH2 | 9 | AUC (AUC96 h) ([1]; 0→96 h, linear trapezoidal rule, four animals): 16,799.8 ng/ml×h; plasma concentration after 96 h ([1]; 96 h): around 5 ng/ml; Cmax ([1]; four animals, 1 mg/kg): 640 ng/mL |
